Biological target: recombinant mouse MAdCAM-1 (mouse) (UniProt Q61826)
Test: Octet

Chain of recombinant mouse MAdCAM-1 (mouse) (Q61826 22-364 limits assumed): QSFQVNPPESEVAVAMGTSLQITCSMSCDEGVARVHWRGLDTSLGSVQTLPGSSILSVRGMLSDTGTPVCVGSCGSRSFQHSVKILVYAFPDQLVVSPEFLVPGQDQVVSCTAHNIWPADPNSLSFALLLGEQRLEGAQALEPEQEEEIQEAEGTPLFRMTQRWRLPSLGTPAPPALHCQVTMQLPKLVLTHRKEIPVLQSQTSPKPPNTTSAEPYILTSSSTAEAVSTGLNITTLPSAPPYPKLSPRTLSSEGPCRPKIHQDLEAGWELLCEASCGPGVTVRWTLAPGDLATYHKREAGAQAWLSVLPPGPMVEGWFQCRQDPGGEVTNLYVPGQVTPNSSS

B1: MAdCAM antibody Table 1 clone 1 (scFv)
scFv: EVQLLESGGGLVQPGGSLRLSCAASGFTFSSYGMHWVRQAPGKGLEWVAVISDDGSDKYYADSVKGRFTISRDNSKNTLYLQMNSLRAEDTAVYYCTTSKYYYYYGMDVWGQGTTVTVSSGGGGSGGGGSGGGGSGGGGSDIQMTQSPSSLSASVGDRVTITCQASQDISKSLNWYQQKPGKAPKLLIYAASSLQSGVPSRFSGSGSGTDFTLTISSLQPEDFATYYCQQGYSTPLTFGGGTKVEIK
For B1, the MAdCAM Octet Binding was 0.16.

Source: patent US20230235004A1
